Source: the DeepSol protein solubility set

Assay: soluble on expression in E. coli; label from the status in PepcDB or PDB records

Question: For “MGSDKIHHHHHHMKHLLAGILVWVIWGLCSCQSDGKVIIPSPIYVDNHYHGPADPEITWNPKTEEWMIFYTSRRPFKDQASYVGTPVGVAVSKDFVHWKFAGYCSFDGVGGQPDSEKTYWAPGVIVEGDSAHMFVTLKDDSTPVWGGPSNIVHFSAPLEDMISGWRRVNTVVDTPISIDATVVKNGDRWDMWYRDRPTEDTGGLYYAQSNDLYHWTLKGLAKGDINNVEVTKHTYQEGAYAFQWKGYFWIIADPHKGLAVYRSKDAENWEYQGIVMYEPGTRFFDNTRARHPSVIIRNDRAFIVYHVQPFLGYNPNTHEAGDDVYQKLSFLQMAELEFKDGKLICDRNKVLYK”, which “soluble on expression in E. coli” value is on record?
Answer: Its value is “not soluble”.

Question: For “MGSDKIHHHHHHMKHYRQVVSPQLRQQALDWILAAAQRPDPALEPEFDIADDERREAKKVRNLHRHDPLFWDDWFARSGLDALVRDHLRKPRLLRHAAFIKRHADESYIPLHQDIALWEKRYESAQTFWVALTPSRNDNGGMFYYPDDRTIFPHEFDLAYPMFKCIDLQANGISREQLVDAELDAGDVLVWPARTAHGSHNNRSGQLRIGMPIVFVEDDEFHQLNREDSMKTWIASNLKSVFPDEAITEDNLDHYLPQLCDYSLKMVTFLARFSRQFGHAPKIHDFIREPRLATLSASDAGARR”, which “soluble on expression in E. coli” value is on record?
Answer: Its value is “not soluble”.

Question: With “MGSDKIHHHHHHMKIAITGKGGVGKTFIASTLMRLFEKNGFKVIGVDCDPNPTLALAFGVEEEIVPLSKRHDIIEERTGAKPGTYGNIFKINPKVDDLIDKVGYKIGNITLLVMGTIEEGGEGCVCPASVLLRRLLRHLILKRDEVVILDMEAGIEHFGRKTIDTVDLMLIVIEPTKKSLITAKRMKKLANDLGIKNLGVIVNKVRNEDKELLKDIIKEELGLEVLGFVPYDEEVIKSEFLGKPINLDSKAAKEIEKIFNYIIKLKNTT” as the sequence, how does the “soluble on expression in E. coli” value read?
Answer: Its value is “not soluble”.

Question: For “MGSDKIHHHHHHMKIAVLNQKGGSGKTTVSIHLAHAFSMIGYRVLLVDTDPQGSTRDWAAARNGEAPFSVIGLDRPILHKELPKLAQGYDFVFIDGAPRVSDLTRSAIMAVDFVLVPVQPSPLDVWAVHEVVELVQEATIYKPDLTAAFLINRKIANTALGREVTEVLGEYPFPVLKAQISQRVAFAECLNIGSTVLEAAPKSAASDEVRAVVEEILEAREETNHGRS”, which “soluble on expression in E. coli” value is on record?
Answer: Its value is “not soluble”.

Question: For “MGSDKIHHHHHHMKIEGLFNKYYNSFTANDKYICECILNHKEDCIKLSIDEFADKYHISTSALSRFAQKLQLPGYSELRVIIRLNETEVEYKNQSKHQLMDCYNKVIDDIEKKDCSIMFERMKKANRIIVFGEGYSQERVAKEMKRIFLPTGKIIYDVYGYDMIQALNHFIKTDDMIFFISLNGDASTIIDFAKEMRMKGIYMVSITKMISNPLARLCDENLYIQSISISVDKQLDYDVTTPYFILIELLYIKYKMYLESEHIPRK”, which “soluble on expression in E. coli” value is on record?
Answer: The value was “not soluble”.

Question: Which “soluble on expression in E. coli” value does the source give for “MGSDKIHHHHHHMKIIDGNIASPLGFSADGLHAGFKKRKKDFGWIVSEVPASVAGVYTTNKVIAAPLIVTRESVKKAQKMQALVVNSGVANSCTGLQGMEDAYTMQKWTATKLKIAPELVGVASTGVIGDLMPMDTLQKGLSKLVVNGNSDDFAQAILTTDTKVKTVAVTEQFGRDEVTMAGVAKGSGMIHPNMATMLAFITCDAVISSETLQLALSQNVETTFNQITVDGDTSTNDMVLVLSNGCTLNKEILPDTPEFDKFSAMLHFVMQELAKKIAKDGEGATKLIEVEVINAPNSLDACMMAKSVVGSSLVKTAIFGEDPNWGRILAAVGYAGVDVPVDNIDIYLADIPVMLASSPVDFDEEDMQDVMRADTIKIIVDLHAGDSVGKAWGCDLSYDYVKINALYRT” here?
Answer: Its value is “not soluble”.

Question: Which “soluble on expression in E. coli” value does the source give for “MGSDKIHHHHHHMKIIILGAGQVGGTLAENLVGENNDITIVDSDKNKLRSLQDKYDLRVVVGHGAHPDVLREAGAEDADMLIAVTNSDECNMSACQIAYTLFGTPTKIARIRSEQYLHMQERLFIDSETKNSDNRTRGGFVIDELIAPEQLVTSYIQRLVEYPGALQVLEFAEGKLSLVAVRAYYGGPLVGNALAALREHMPNIDTRVAAIFRQGRPIMPRGTTIIEADDEVFFVADSRHIRAVMSEMQKLDNSYRNIMIAGGGNIGLGLAKKLERNHSVKLIEHKAERAEALSEKLQNTTVFCGDASDQELLLEEHIDQTDVFIAVTNDDEANIMSALLAKRMGAKKVMVLIQREAYVDIVQEANIDIAISPQQATISALLTHIRQGDICNVYSLRRGAAEAIEAIAHGDPSTSKVVGKQIGEIRLPPGTTIGAIVRNDEVLMAHDKTVIEQGDHVILFLVNKKFIGEVERLFQPSAFFF” here?
Answer: Its value is “not soluble”.

Question: With “MGSDKIHHHHHHMKILIIPNRGRSYNAVRPEAECYIALAEAGHDVTVISSGTNAYIDRYKKSKVKFIELKTLKKHSWAVIKQIRQYIKANNIDIVYATESKGIPNAAFACIGTKAKLVVYRGTSGGMYKTDPSNYLCMLHPRINGVIGVSSAVSANVREKVRGAIKANVETIYKGHDLSWYKEDAADLVSLGSNKKYFNILCVGSPRHHKGTHILLDAAKELNDIEDLRIILVGDNLDKQAFIDQINNSGMSEHILQPGFRSDVPAIAKACDLLILPSLSKEGLTRTVLESLSNGTPVVSSANDGVVETIENGFNGYLVPIGDVQAMADKIRMLYNDRVLLEKLSNHAQDIIKDKMSHHKTVTHMEAYFEKIIAQN” as the sequence, how does the “soluble on expression in E. coli” value read?
Answer: Its value is “not soluble”.

Question: For “MGSDKIHHHHHHMKILILRFSSIGDIVLTTPVIRCLKKQIPNAEIHFATKASFKSILENNPYIDKLHLLESSTASFIKQLKAERFDVVIDLHSNIRTKRIKWALKAKSFTFDKLNIRKWFYVNWKWKTMPAIHIVDRYLDTVKHLGVKNDNEGLDYFIPEKDIISRDSLPQKYAAGYVAIAIGAQHATKRLPEAKLIELIGKISHPIILLGGKDDTATAARLVAYFPDTKNILNACGTYNLNQSASIVHQCMYLYTHDTGLMHIGAALQKRIISIWGNTTPELGMYAYKTEHVNWQKEDLYCRPCSKIGYNSCPKKHFRCMNEQVLPVHEIESRWN”, which “soluble on expression in E. coli” value is on record?
Answer: Its value is “not soluble”.

Question: With “MGSDKIHHHHHHMKILRHFLNATDPCMLQQHIRSIKQDEPANLAIAFGNIDAIVHLSQATEITQLATSWVVTSSCIAAFSDIAAEDNQNHLAILQFYDPQGSYGVASKQSSIDSIIEDSQQALTLALNAANRPGELPAFIWCSQSPGLEEGLLAGIRQLVGNNVPVFGGTAADNDVSGHWCMFDGQQTITTGFIIAVLFPSTPINYFFSSGYETTRHTAIVTSASGRKLHTLNHQPAASVYNQWRTMMALPTLANGPVLAQSTFNPLGRVILDNDEQMTLLSHPAFIYGDGTMELFSEVYQGEQLTFMHGNQTLLIQRAQTVTHFATQQLHDLYDSKPLAAIVIFCAGCMLAIKNETSQVRQGVENALGNVPFIGGFTFGEQGRFADGVNRHGNLMISAIIFGHPNE” as the sequence, how does the “soluble on expression in E. coli” value read?
Answer: Its value is “not soluble”.

Question: With “MGSDKIHHHHHHMKIVTYSKNVFIPLTRNCRNRCDYCGFRSEEIGVMSAEEVRKILSAARGAKEALFTFGERPDEVYPEFKAMLLEMGYKSMVDYILEMNKIAVEMGFLPHTNAGILSKEEMRKLKPYNASMGLMLEQAVELECHANSPGKKPEVRIKMIRDAGKLQIPFTTGILVGIGEGREDRLYSLEIIAEIQDNYGHIQEVIVQNFKPKKGTPMENTPPPTLEEMLEAVKAAREILPQEVAIQIPPNLVDDIYPFLKAGANDVGGISNVTHDYINPESPWPEVERLERALRGEFILKERLPIYPRFVKLKWYGEALEPLIEKYSDADGYARP” as the sequence, how does the “soluble on expression in E. coli” value read?
Answer: Its value is “not soluble”.

Question: Which “soluble on expression in E. coli” value does the source give for “MGSDKIHHHHHHMKKATLKDIAEYFGVSISTVSRALSGKPGVSSELREKILEKAREIGYTPNLMALGLKKGNTRTVGVLIPELSANFFADIVSSIEKSLFHLGYRLILCSTDDDPVKEREHLQLLLDQKVEGILSAPVNVKENKDIYNSIINHFKIPVVFFDRLVEGVDSDFVISDNREGMEILVNYLVKHGHKKIGLIHPLRGSFTGEERLKGFLLFKDSIEIREEWIRDGRSSEQGGYESFLRIMTSQERPTAIVIGNNLMTLGVLKAAKELNIKIPEDISLVSFDDAYWNEIFDPPITCVRQDPQQIGLIAATILLDRMKNRKKPSPRMQVVLKVKFVERSSVRTIKTLKDFS” here?
Answer: Its value is “not soluble”.

Question: For “MGSDKIHHHHHHMKKILFLFLAACFFFSCEKETIVIPQQHAGRTVLAFFWADNSLNSSLRDNIQTMMQGLQAMKDSAALLVYWDGEASDISWPEPCIVEYVTNGQGGINSLSKGTIDAMMADKNTSIYDLIGIGNIRKKYPPQTSTEKTVMQTVIGDMMSAYPSESYGIIFGSHGSGWLPTITGTRSIGQDGGRYSSDTALIPELAEVLRTVNPQKFDFVLFDACMMGCAEVYYELKDAARYCIASVLDIPAAGFPYASVMPYLYENAIKDYLEPICKDYIDYYNYIGWGTISAVDCNQMEGLAEAVRSVILSNQDSLKNVDTADLQQYGKGSSSFKGYAYDMLQFIGKLCGGMAPDDFTQQLKKTVIYTDYTHDPTSSLYRIDGDNYSGMGMYIPNSFTTPKYLLWNNYFKSSIAWYHASGWAETESIWGN”, which “soluble on expression in E. coli” value is on record?
Answer: The value was “not soluble”.

Question: For “MGSDKIHHHHHHMKKKNTTPTPHDATFRQFLTQPDIARDFMELHLPAELRAICDLSTLKLESGSFVEDDLRQYFSDVLYSLKTTAGDGYIHVLVEHQSTPDKHMAFRLIRYAVAAMQRHLEAGHKKLPLVIPVLFYTGKRSPYPYSTRWLDEFDDTALADKLYSSAFPLVDVTVIPDDEIAGHRSMAALTLLQKHIHQRDLAELVDRLAPILLAGYLSSSQVISLVHYIVQAGETSDAEAFVRELAQRVPQHGDALMTIAQQLEQKGIEKGIQLGEQRGIEKGRSEGEREATLKIARTMLQNCIDRNTVMKMTGLTEDDLAQIRH”, which “soluble on expression in E. coli” value is on record?
Answer: Its value is “not soluble”.

Question: For “MGSDKIHHHHHHMKKLLLTAAITLTMPFAAHAGSEFVEGDATLAGEAELGATLTTGNTDTSSFKARLALKQELGDWENEYVFEGLYKEDTEEVTAKRYFLGVQGDYQINDVSYLFANTNYEVDPFTGYDFTSTTSAGYGHRFIDTDRMSLKAEAGPGYIYQQLDEESALAEGYDSDDSVVAHAVIDFQTKISDSSKFQQKFVADWGSKLDARSETSLTANIVGALAMKFAVIVRYNSEPLDDKESTDTETNMTLLYAF”, which “soluble on expression in E. coli” value is on record?
Answer: Its value is “not soluble”.

Question: For “MGSDKIHHHHHHMKKLNLQCDLFNNNNLNFSDKGPLQDVFIDKKIIKEWQAKIITHQSPIFKSGHIDVNQYSLFESSSDELNASFNPIELTPLPLSFWRWPKAMHEGPAVYFVMDEIIDSGENIILYIGETISAEKRWKGEHDCKDYISSYSDSLHKANVKAKLSIRFWLDVPTKTKERRKLEQKLIQAWLPPFNKETREIWATPFTSQIN”, which “soluble on expression in E. coli” value is on record?
Answer: The value was “not soluble”.

Question: For “MGSDKIHHHHHHMKKVLGLVVSNRKLGNSEILVKEIINNIPEECNRELIRLTDLEIKPCKACYRCLQPNNACPVRDDFNFVIEKIREADALIIGVPVYFLGPHGYYKMLTDRLLGSQNYSQDTQGKPCIIVMPYGSEGWEGYSKIACMVMPKLLRMKLVDCWQIHASLPGESLLNPENISYARALGRELFNGREYHAESKECPICGSDLFRLINENQVECPICGSRGILKNNFSPDFSDSDYRRFSDHEMDEHFKGWLLEMKDRFSAEKNHLKELQKGYRNQNWWIKPCRLDEC”, which “soluble on expression in E. coli” value is on record?
Answer: The value was “not soluble”.

Question: For “MGSDKIHHHHHHMKKVLVIRNDKLGDFMLAWPAFAMLKASDPSLKLTALVPTYTAEIARACPYLDEVIIDVPKGDKAAFQRLVNDIKAQRFDAMISFFSNTHNAKLAWKCRIPYRLAPATKWVQFFYNHRLVQRRSQSAKPEFAYNLDLARRFLQDQSIAVVEPRPPYLSFPKSAVDFQREFLCLQLNVDSSKKWIFVHSGSGGSANNLSLAQYAALIRGLLAQFDAYVILTAGPNESEKAHELAGLVQDARVVVYDKNKGLVDFAQSLACADLFIAGSTGPLHLSGALNVPTIGFYPSRRSATPLRWQPINDEAKHLAFCPSNDKASQTDLSKISIEEKLAKMIRFITKVWHAADK”, which “soluble on expression in E. coli” value is on record?
Answer: The value was “not soluble”.
